Results published in paper PMC7022633, “Gene Cloning, Recombinant Expression, Characterization, and Molecular Modeling of the Glycolytic Enzyme Triosephosphate Isomerase from Fusarium oxysporum” (Microorganisms, 2019).

Target: recombinant triosephosphate isomerase from Fusarium oxysporum (FoxTPI) (Fusarium oxysporum)
Experiment: SEC; gel filtration on Sephacryl 100 (16/60), 50 mM Tris pH 8.0, 0.5 mL/min; calibrated with Bio-Rad gel filtration standard; single peak at 47 mL, relative MW 56 kDa

stoichiometry N: 2
Substance: recombinant triosephosphate isomerase from Fusarium oxysporum (FoxTPI) (enzyme)
